# Where two headings read alike, the source gives them in different places.
# What was measured:
# [1] = system: Nc1ncnc2c1ncn2[C@@H]1O[C@H](COP(=O)(O)OP(=O)(O)OP(=O)(O)O)[C@@H](O)[C@H]1O; experiment: Michaelis-Menten kinetics (Km), inorganic phosphate detection assay; format: biochemical, Enterococcus casseliflavus; details: MgCl2
# C[C@@H](N)C(=O)O = experiment: Michaelis-Menten kinetics (Km1), inorganic phosphate detection assay; format: biochemical, Enterococcus casseliflavus; details: ATP, MgCl2 subsite […] (first substrate binding site)
# N[C@H](CO)C(=O)O = experiment: Michaelis-Menten kinetics (Km2), inorganic phosphate detection assay; format: biochemical, Enterococcus casseliflavus; details: ATP, MgCl2 subsite […] (second substrate binding site)
# [2] = target: T1, vanC2 D-Ala-D-Ser ligase (EcfDdls) (Enterococcus casseliflavus, UniProt Q47720); experiment: malachite green inorganic phosphate detection assay with purified enzyme; format: biochemical
# T1 construct: C-terminal 6x His-tagged EcfDdls, strain SSK, ~39 kDa
# T1 sequence (Q47720 whole entry): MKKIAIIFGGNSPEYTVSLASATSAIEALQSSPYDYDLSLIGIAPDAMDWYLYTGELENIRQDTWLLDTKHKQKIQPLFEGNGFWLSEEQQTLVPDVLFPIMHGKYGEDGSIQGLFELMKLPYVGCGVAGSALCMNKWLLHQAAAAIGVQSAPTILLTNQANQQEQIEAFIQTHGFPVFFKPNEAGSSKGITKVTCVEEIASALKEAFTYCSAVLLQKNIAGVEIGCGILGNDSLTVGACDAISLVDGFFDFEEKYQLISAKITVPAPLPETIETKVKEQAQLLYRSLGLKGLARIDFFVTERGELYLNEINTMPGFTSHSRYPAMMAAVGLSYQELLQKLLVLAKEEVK
molecule,measurement,setting,value
vanC2 D-Ala-D-Ser ligase (EcfDdls) (Enterococcus casseliflavus),Km,[1],24.31 ± 4.1 µM
same,Km,C[C@@H](N)C(=O)O,1.12 ± 0.1 mM
same,Km,N[C@H](CO)C(=O)O,0.8 ± 0.1 mM
"Cc1cc(CN2CCN(Cc3nc(C(C)C)no3)CC2)no1 [CID 45805715, 1-[(5-methyl-1,2-oxazol-3-yl)methyl]-4-{[3-(propan-2-yl)-1,2,4-oxadiazol-5-yl]methyl}piperazine]",IC50,[2]; read-out: IC50,76.7 ± 1.01 µM
"N[C@@H]1CON=C1O [DCS, D-cycloserine]",IC50,[2],313 ± 1.6 µM

# — paper PMC12004154, “Overexpression, Purification, and Biochemical Characterization of the vanC2 D-Ala-D-Ser Ligase from Enterococcus casseliflavus SSK and Its Inhibition by an Oxadiazole Derivative” (ACS Omega, 2025)
